In a protein production outcome set (Wang et al. 2014):

Assay: label from the status in PepcDB records

Row | Sequence | protein production
1 | MNILLAMIPAFFWGTTYAVTQFTLPDWPPVLLGALRALPAGLLLLAIKPSLPKKHEWKVLLVLGTINIAFFFGLIFVMALTLPSAISGVGMISVPVFAMLFGWAVYKRQPSAIQGISGAVLIALAWFLFDPSSISLNPIGLGAMLAAIMCIVIGSSVTKSLGTKMHWWTVLTWQLILGGVLLSIAAAVLATINPQPYVHAVQNIDMTNTLGLLWVIVLNTALGYGMYVWLLQRMSVVDFTFGGIANPIAGIVSGLLLLGENFTPLQYSLMVGMIVMSLLPQILTSLRARKEAITV | failed
2 | LIIFCLLSVVAAAAYFSFSHWAIRHETLTFFDESRGRPVAIDLAVRRDAEMKAEAGMVTLPVAVVSHGNTVKNTEYSFLANVLAARGYLVASIQHDLPDDKPLMTVAGSLYVGRLAVYERGEKNIFFALKELKKLEPNADYDHLTLVGHSNGGDISMFFAQQHPEMVRRVVTLD | failed
3 | MLNATAFCLAYAGFAALSLGMDRHYEDVFDRALPRRRRLALRSLEWLGLALSLWASAGAWGWNYGTVEWIGILSLAGLLLIWLLTFWPRAALGAGGACALAAPVLALL | failed
4 | MMSRKRWLALIAAAMLFVASAAISLVSSPAVDVDEWVGTGTSYKQTIVETGTDFGKSIAILELSGVIQDTGSAPSLLNTGVYHHRDFLKQLEKAGEDPNIAGIILQVNTPGGGVLESAEIHKQVEEIVQDSEKPVYVSMGNMAASGGYYISAPATKIYAHPQTITGSIGVIMQSIDISGLAENLGIEFNTFKSGPYKDILSQTREVTDEEEDILQTLVDEMYDEFVRVIVDGRGMSETEVRELADGRIYTGSQAVATGLVDELGGLDDVIESMKEDLGADYNVIRYEHSLGLYDFFSMSTNRLLSPSYELQSIERLLNQSNTPTLQYLYAELEHHHHHH | not failed
5 | MVLLMAVSLSFAQMKNVKEAKSIASDVKPNFNQAEKLINEAIKNPETKDLPDTWDVAGFIQKRFIEEERDKKGVLKQPFDTLKAYNSILKMFEYYTKCDDLAQVPNEKGKIKNKYRKANASTILVERPNLINGGIQFFNLDKNKEALQFFATYVESASYPMLAEQNLAKTDTLLAQIAYYATLAADRVGDKDAIIKYAPAALDDKDGGKFAMQLMADAYKAKGDTAAWVKSLEEGILKFPGNDYFFANLVDYYTSSNQASKAMEFADRMLSTDANNKLYLYVKAYLYHNMKEYDNAIEFYKKAIAADPEYAEAYSNVGLVYLMKAQDYADKATTDINDPKYAEAQATVKKFYEEAKPFYEKARALKPDQKDLWLQGLYRVYYNLNMGPEFEEIDKMMK | failed
6 | MIGKEVLNYTIVSLIGKGGMGSVYLAEHKYIKQQKVAIKVINSDMVNDFTRQRLKEEAEHLASLNHQNIVRFHDYHIDELGSIYLIMEYADGISLDKYIQTVSGLIVEDKICPLFEPILDAVEYAHEHNIIHRDIKPANIIITKEGIPKILDFGIATIINRESVEKDDMVMGTPSYMSPEQVRGDHLDSRSDIYSLGVMLHQMLTGNAPYDTTTLTEYDINKKVVEEPLPRMRTYYKYVSDKVQKIVDKATAKEPGERYQTCDDFKKALHRVIYPPKIPKWVWTSVAAIVLLMIGGGVYFWDYNRTKVYYYKDYVEQWGVPQGIGELSSREMSHVNRLYRFEYKKHKLQRMSHVNSKENIIEDGESERNERPLDMLLYYTDKGNISRAKVLDRSGKVLYVKSYNDKLNTVIFQYDDEYGTEKTLGAQTIGYVRALEDNGVEKGKISRWLLEYDENGYVSTIRYAGFQNVLVGDAHNIYGRKYVRDEKGRVLSEHYLSFDGTPKATKWGLGMKKFYYDENDNWVKAEYLTVDGKPAYDDADGIGVYVMEYDKYGNVVYALHQDADGKLMLPKKNGVAGIKYIYDQHGFPIEASYLDIDRKACFIPNDGFSKVVRKFDDNGYIINQTFYDVDGNQCLSNDGNSSAKYINDNRGNVQEMWFYGLDGKLNEINEGYAGVKLNYDSIGNIIEYVTYGIDQKPCLKSDGTAGYKAEYNDMNLITKLVNIGVDLSPCKDNNGIVIAARDYDKRGNQIKVSFYDAGGKTLVLSNENIAGWNSVYDDNGNETERSFFDDKNNLTVCAGSCAKWISKFDEQGNETNLRYYNLSGKLMMVNGSAGANYKRDKRGNILEKIEIGTDEQLASGKLIARYKYDKFDNQIEFSVYDRNNKPALNSLDYHKYVCIYNSRNQRIEIEYYGKDGELTSYNNDKYAIQKDEYDERGYIVRTSYYGKDKQLVVSNEGWASSTREYDVLGNVLKQSFFGIDGKPTDPKVMVPEGLCRYDRWGNRIYLAAGDGKGHLIINPKTGWSIQKSEYNSRGKLLSEAYFDENEKPLISRMDGYHKAVISYTSSGNEKEKCYYDIMNKPMLCPDGYFKEVYEYNDNQQAISLSYLGVNGKSIDCKDGYSKIELTYNKDGEMESRKYTNASGRILLTQKWNGKEWVNSSPEPISRNWQQDVRKFNAELPIDFGENTKHLVASSFLVTGSNSCELSFKTPKSKYEMTEAEVNEYFASIKLVVTKIKSESLPSSVVITGILFDSKGRQLRSIRK | failed
7 | GSDSSLFETYNVELVRKDGQSLGIRIVGYVGTSHTGEASGIYVKSVIPGSAAYHNGHIQVNDKIVAVDGVNIQGFANHDVVEVLRNAGQVVHLTLVRRKTSSSTSPLEPPSDRGTV | not failed
8 | AKGKNVIVLHLESFQQFLIDYKLNIDGKQYEVTPFLNSLYHSKETFAFSNFFHQVKAGKTSDAETLMETSLFGLNQGSFFVQYGGDNTQQAAPHILKDTNNYSSAVFHGNIGTFWNRNNAYKQLGYQHFFDQSYMSKMTKDNSFQYGLNDKVMFADSIKYLEHMQQPFYTKFITVSNHYPYQSLDGDDTGFPLAKTEDKTINGYFATANYLDAAIKDFFDYLKASGLYKNSIIVMYGDHYGIANSRNTDLAPLLGKDSQTWTEYNNAMLQRVPYMIHVPGTDKGFISNTYGGEVDALPTLLHLLGIDNKNYIELGQDLLSPNNKQLVAFRSEGNYITPNYTSYSGRVYDTKTGV | failed
9 | MRVVLQMAPPIASGRGGQGLITCPGHKERRVASLNRIAMARSSRRMIKDLGPEGLEVAEISGKWGQQFPFRSYRRFIYPEYDICAGPYCDAAGEIEQFDLILANQVWEHLDRPYEATLNVLEMLRTGGHFWLAVPFFVPFHAAPMDNSRWSARGLRNFLIECGFAEEEIRAEQWGNRHAALRNLERPWPPVYDPETDPLDNDPDFPICAWAIARKT | failed
10 | SSQPVISAQEQETQIVLYGKLVEARQKHANKMDVPPAILATNKILVDMAKMRPTTVENVKRIDGVSEGKAAMLAPLWEVIKHFCQTNSVQTDLFSSTKPQ | not failed
11 | MAGDYHRGEMDIQEQAATYDAFGKMTKWGSLAISVLLLFFTLLFCTSAGFIGSAIASIVLLVLGVVLLKEKPTQSH | failed
12 | TLIYGHRGAKGEAPENTLASFQRCLEHGVNRCELDLHLSRDGELMVIHDPTLKRTTGRRGKVAEHDAATLATYDARKGGPGWVRPTPIPRLEELFEKCPFEHWQLEVKSASRERAARTVTRIRELTERFGNRDKVTVTSGSRTVLKALNELTPELSRGLVAEYAWLDPLKVAQHYGCALLALNWTLCTPERLLKAQRQGLHVSVWTVNEPALMRRLADFGVDSLITDFPGLASATLGNR | failed
13 | MARLIGFKMAEVHRGRIVMQLDPDQSLENTAGLLHGAIAAALLDTAMGCAISTQQPAGQGSVTMDLKLSYLRPLSVRSGTIVAEGRVVKLGRQSSYTEGFVYDGAGKLAVHATATFAMLGAGPLEHHHHHH | failed
14 | MILPTKAMATQELTVKRKLSGNTLQVQASSPVALGVRIPTVALHMMELFDTTVEQLYSIFTVKELTNKKIIMKWRCGNWPEEHYAMVALNFVPTLGQTELQLKEFLSICKEENMKFCWQKQHFEEIKGSLQLTPLNG | failed
15 | MVIRGTNNDDNLIGTTGNDIIEGLGGNDRFEGGRGNDTLTGGTGNDVFNLEQQQDNDVVTDFVRGQDKIDLRNLNINDWATLQLLISNDGQDNALITTFFNGSQSQIKLLNINPNLLQASDFIFNTVNLNQTIDGTNFADQLFGGLGNDTLRGFNGNDVLFGEQGDDRFEGGRGNDTFYGGAGNDVFNLEQQQDNDVVTDFVRGQDKIDLRNLNINDWATLQLLISNDGQDNALITTFFNGSQSQIKLLNINPNLLQASDFIFNTVNLNQTIDGTNFADQLFGGLGNDTLRGFFGNDVLFGEQGDDRFEGGRGNDTFYGGAGNDVFNLEQLQDNDVVTDFVRGQDKIDLRNLNINDWATLQLLISNDGQNNALITTFFNGDQSQIKLLNINPNLLQASDFIFNTVNLNQTIDGTNSPDQLFGGLGNDTLRGFFGNDVLFGEQGDDRFEGGRGNDTFYGGAGNDVFNLEQLQDNDVVTDFVQGQDKIDIRNLNINDWATLQLLISNDGQDNALITTFFNGDQSQIKLLNINPNLLQASDFIFNTVNLNQTIDGTNSPDQLFGGLGNDTLRGFFGNDVLFGEQGDDRFEGGRGNDTFYGGAGNDVFNLEQLQDNDVVIDFVQGQDKIDIRSLNISDWATLQLLISNDGQNNALITTFFNGDQSQIKLNNINPNLLQASDFIFNTNTVNLNQTIDGTNSPDQLFGGLGNDTLRGFFGNDVLFGEQGDDRFEGGAGNDTFYGGTGNDIAVYLGTRSQYQVTSNGGVFTVTDTVANRDGVDTLREVEQIQFSDQTITIGNTSPTITLAVSPASVTEDGTPNLIYTFTRTGSTTNALTVNYSVAGTATLNTDYAQTGAASFTATTGTITFAVGASTAILTINPTADTTVESNETVALTLASGTGYTVGTTTAVTGTITNDDFPSITLAVSPASVTEDGTPNLIYTFTRTGSTTNALTINFGVAGTATLNTDYAQSGAASFTATTGTITFAAGASTAILTINPTADTTVESNETVALTLASGTGYTVGTTTAVTGTITNDDTLPTGITINLSGSQTIVEGNSSPQNVTYTVTLSQASSQIITVQYATANGTATAGSDYTSTTGTLTFNPGETSKVINIPILNDSVNEANETFTLRLTSPTNATLGTTNTVTTTITDTLSASVTTTLPTNVENLTLTGTAAINGTGNAGNNILTGNSGNNILSGGAGNDTYAFVANAALGTDTITETATGGIDTIDFNGSTATVRVNLGVTTSQTVNNNLKLILSANNVIENATGGTGNDRLTGNALNNILAGGNGNDQLQGLAGNDTLWGGLGDDILTGGIGQDKYLFQSSGVFSSSLGVDYISQFDVGQDQIVLSKATFNAVTNSAGQALTDFAVVSDDEFVNASSARIVYSQGSGSLFYNRDGNVLGTSTVFEFARLGNPDITLSSSDFSLIA | failed
16 | MTENTNFKSGYSEVNGLKMYYEIHGEGKPLVLIHGGGSTIKTSFGNILPLLLKSRQIIVMELQAHGHTGDRETDLTFEQDADDVAKLLENLQITKADFLGFSNGGHTTIEIALRHKKIVDKILLASAFYKRDAVVPEFWDGFDSATLEMMPKVLQEGYLKANDDEKGLLNMFKKDVQKMKDFKGWTDEQMKSITAKTLIINGNNDVGSIEHAVEMYRILPNCELAILPGGHGTYLGAIESLPNGEWTMKYVAELIEEFFDKH | failed
17 | VGFLMFGNLLRECGVLDRLSQTAQNELVNIISILLGLTISIKMQADLFLNVQTL | failed
18 | MNSAARNAPAGSQPVKAELWKRVYSRVGSYWKGLVLAVLLMAGAAATQPTLAVIMKPLLDDGFSGAKPHYVWFLPLAVVGLILLRGICNFFSDYLLAWVANNVLRGIRGEMFERLLGLPDADFKRGDTGRLLNRFTIDAGNVTGYATDVITVLVRETLVVIALIGVLLYMSWALTLIILVMLPVSVGIARAFTRRLRRINRETVNMNAELTRVVSEGIDGQRVIKLFDGYDAERRRFDFVNSRLRRFAMRSATADAALTPLTQVCISVAVGAVIAVALSQANSGALTVGSFASFMAALAQIFDPIKRLTNLAGKMQKMLVAAESVFTLVDQTPEADAGTRALPEPVRGKVEFRAVSHRFPDADRDTVSAVSFLVEPGQTVALVGRSGSGKTTLVNMLPRFVLPDGGDILFDDVPIQDLTLRSLRSHLSLVSQDVVLFDDTIAANVGYGAGGTVDDARVRDALAAANLLEFVDGLPLGIHTPVGQNAARLSGGQRQRLAIARALIKNAPVLILDEATSALDNESERQVQASLERLMRGRTTLVIAHRLSTVQNADRIIVLDAGKIVEHGPHSELLAANGLYASLYNMQFRED | failed
